This note sets out measurements from patent US20140087995A1 (published 2014).

Numbered stars: 1 amine (or outer) side, 2 acyl side, 3 side chain; on linkers, the order of the positions; unused ones are H or OH. Bridge positions count the residues as written; N and C are the ends. * marks the point of attachment. C20 diacid = O=C(O)CCCCCCCCCCCCCCCCCCC(=O)*; γGlu = O=C(O)[C@H](CCC(=O)[*:2])N[*:1]

The chains are these.
T1: human calcitonin receptor (human, UniProt P30988 25-474)
T1 sequence (looked up): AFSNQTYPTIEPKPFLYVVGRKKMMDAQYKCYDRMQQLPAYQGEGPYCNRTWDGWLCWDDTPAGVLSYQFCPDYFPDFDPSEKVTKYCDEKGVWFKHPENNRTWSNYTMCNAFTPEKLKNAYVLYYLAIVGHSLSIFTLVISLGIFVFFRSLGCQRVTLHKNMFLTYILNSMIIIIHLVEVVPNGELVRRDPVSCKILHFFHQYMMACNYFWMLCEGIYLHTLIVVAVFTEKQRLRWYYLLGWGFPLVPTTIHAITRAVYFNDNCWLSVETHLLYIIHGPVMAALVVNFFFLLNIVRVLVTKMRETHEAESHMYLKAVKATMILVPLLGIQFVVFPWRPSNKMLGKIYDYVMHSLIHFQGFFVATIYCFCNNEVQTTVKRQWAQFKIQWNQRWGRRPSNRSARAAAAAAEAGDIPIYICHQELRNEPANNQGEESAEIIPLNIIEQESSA

T2: human amylin 3(a) receptor (human calcitonin receptor + RAMP-3) (human, UniProt P30988 25-474; O60896 24-148, limits assumed)
T2 sequence (looked up) 1: T1 sequence (looked up)
T2 sequence (looked up) 2: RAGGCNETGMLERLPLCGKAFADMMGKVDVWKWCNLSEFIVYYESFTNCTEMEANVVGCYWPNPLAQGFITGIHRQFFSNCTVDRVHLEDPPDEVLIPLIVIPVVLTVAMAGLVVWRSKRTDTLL

B1: N^α1-[(4S)-4-carboxy-4-(19-carboxynonadecanoylamino)butanoyl]-[Glu14,Arg17,Pro21,Pro27,Pro37]-h-amylin (peptide)
peptide: {C20 diacid-γGlu}-KCNTATCATQRLAEFLRHSSPNFGAIPSSTNVGSNTP-NH2
modifications: disulfide 2-7
SMILES: CC[C@H](C)[C@H](NC(=O)[C@H](C)NC(=O)CNC(=O)[C@H](Cc1ccccc1)NC(=O)[C@H](CC(N)=O)NC(=O)[C@@H]1CCCN1C(=O)[C@H](CO)NC(=O)[C@H](CO)NC(=O)[C@H](Cc1c[nH]cn1)NC(=O)[C@H](CCCNC(=N)N)NC(=O)[C@H](CC(C)C)NC(=O)[C@H](Cc1ccccc1)NC(=O)[C@H](CCC(=O)O)NC(=O)[C@H](C)NC(=O)[C@H](CC(C)C)NC(=O)[C@H](CCCNC(=N)N)NC(=O)[C@H](CCC(N)=O)NC(=O)[C@@H](NC(=O)[C@H](C)NC(=O)[C@@H]1CSSC[C@H](NC(=O)[C@H](CCCCN)NC(=O)CC[C@H](NC(=O)CCCCCCCCCCCCCCCCCCC(=O)O)C(=O)O)C(=O)N[C@@H](CC(N)=O)C(=O)N[C@@H]([C@@H](C)O)C(=O)N[C@@H](C)C(=O)N[C@@H]([C@@H](C)O)C(=O)N1)[C@@H](C)O)C(=O)N1CCC[C@H]1C(=O)N[C@@H](CO)C(=O)N[C@@H](CO)C(=O)N[C@H](C(=O)N[C@@H](CC(N)=O)C(=O)N[C@H](C(=O)NCC(=O)N[C@@H](CO)C(=O)N[C@@H](CC(N)=O)C(=O)N[C@H](C(=O)N1CCC[C@H]1C(N)=O)[C@@H](C)O)C(C)C)[C@@H](C)O
notes: also called compound 8
B2: N^α1-[(4S)-4-carboxy-4-(19-carboxynonadecanoylamino)butanoyl]-[Asp14,Arg17,Pro21,Pro27,Pro37]-h-amylin (peptide)
peptide: {C20 diacid-γGlu}-KCNTATCATQRLADFLRHSSPNFGAIPSSTNVGSNTP-NH2
modifications: disulfide 2-7
SMILES: CC[C@H](C)[C@H](NC(=O)[C@H](C)NC(=O)CNC(=O)[C@H](Cc1ccccc1)NC(=O)[C@H](CC(N)=O)NC(=O)[C@@H]1CCCN1C(=O)[C@H](CO)NC(=O)[C@H](CO)NC(=O)[C@H](Cc1c[nH]cn1)NC(=O)[C@H](CCCNC(=N)N)NC(=O)[C@H](CC(C)C)NC(=O)[C@H](Cc1ccccc1)NC(=O)[C@H](CC(=O)O)NC(=O)[C@H](C)NC(=O)[C@H](CC(C)C)NC(=O)[C@H](CCCNC(=N)N)NC(=O)[C@H](CCC(N)=O)NC(=O)[C@@H](NC(=O)[C@H](C)NC(=O)[C@@H]1CSSC[C@H](NC(=O)[C@H](CCCCN)NC(=O)CC[C@H](NC(=O)CCCCCCCCCCCCCCCCCCC(=O)O)C(=O)O)C(=O)N[C@@H](CC(N)=O)C(=O)N[C@@H]([C@@H](C)O)C(=O)N[C@@H](C)C(=O)N[C@@H]([C@@H](C)O)C(=O)N1)[C@@H](C)O)C(=O)N1CCC[C@H]1C(=O)N[C@@H](CO)C(=O)N[C@@H](CO)C(=O)N[C@H](C(=O)N[C@@H](CC(N)=O)C(=O)N[C@H](C(=O)NCC(=O)N[C@@H](CO)C(=O)N[C@@H](CC(N)=O)C(=O)N[C@H](C(=O)N1CCC[C@H]1C(N)=O)[C@@H](C)O)C(C)C)[C@@H](C)O
notes: also called compound 10
B3: N^α1-[(4S)-4-carboxy-4-(19-carboxynonadecanoylamino)butanoyl]-[Glu14,Arg17,Pro21,Pro27,Pro29]-h-amylin (peptide)
peptide: {C20 diacid-γGlu}-KCNTATCATQRLAEFLRHSSPNFGAIPSPTNVGSNTY-NH2
modifications: disulfide 2-7
SMILES: CC[C@H](C)[C@H](NC(=O)[C@H](C)NC(=O)CNC(=O)[C@H](Cc1ccccc1)NC(=O)[C@H](CC(N)=O)NC(=O)[C@@H]1CCCN1C(=O)[C@H](CO)NC(=O)[C@H](CO)NC(=O)[C@H](Cc1c[nH]cn1)NC(=O)[C@H](CCCNC(=N)N)NC(=O)[C@H](CC(C)C)NC(=O)[C@H](Cc1ccccc1)NC(=O)[C@H](CCC(=O)O)NC(=O)[C@H](C)NC(=O)[C@H](CC(C)C)NC(=O)[C@H](CCCNC(=N)N)NC(=O)[C@H](CCC(N)=O)NC(=O)[C@@H](NC(=O)[C@H](C)NC(=O)[C@@H]1CSSC[C@H](NC(=O)[C@H](CCCCN)NC(=O)CC[C@H](NC(=O)CCCCCCCCCCCCCCCCCCC(=O)O)C(=O)O)C(=O)N[C@@H](CC(N)=O)C(=O)N[C@@H]([C@@H](C)O)C(=O)N[C@@H](C)C(=O)N[C@@H]([C@@H](C)O)C(=O)N1)[C@@H](C)O)C(=O)N1CCC[C@H]1C(=O)N[C@@H](CO)C(=O)N1CCC[C@H]1C(=O)N[C@H](C(=O)N[C@@H](CC(N)=O)C(=O)N[C@H](C(=O)NCC(=O)N[C@@H](CO)C(=O)N[C@@H](CC(N)=O)C(=O)N[C@H](C(=O)N[C@@H](Cc1ccc(O)cc1)C(N)=O)[C@@H](C)O)C(C)C)[C@@H](C)O
notes: also called compound 37
B4: N^α1-[(4S)-4-carboxy-4-(19-carboxynonadecanoylamino)butanoyl]-[Glu14,Arg17,Pro21,Pro27,His35]-h-amylin (peptide)
peptide: {C20 diacid-γGlu}-KCNTATCATQRLAEFLRHSSPNFGAIPSSTNVGSHTY-NH2
modifications: disulfide 2-7
SMILES: CC[C@H](C)[C@H](NC(=O)[C@H](C)NC(=O)CNC(=O)[C@H](Cc1ccccc1)NC(=O)[C@H](CC(N)=O)NC(=O)[C@@H]1CCCN1C(=O)[C@H](CO)NC(=O)[C@H](CO)NC(=O)[C@H](Cc1c[nH]cn1)NC(=O)[C@H](CCCNC(=N)N)NC(=O)[C@H](CC(C)C)NC(=O)[C@H](Cc1ccccc1)NC(=O)[C@H](CCC(=O)O)NC(=O)[C@H](C)NC(=O)[C@H](CC(C)C)NC(=O)[C@H](CCCNC(=N)N)NC(=O)[C@H](CCC(N)=O)NC(=O)[C@@H](NC(=O)[C@H](C)NC(=O)[C@@H]1CSSC[C@H](NC(=O)[C@H](CCCCN)NC(=O)CC[C@H](NC(=O)CCCCCCCCCCCCCCCCCCC(=O)O)C(=O)O)C(=O)N[C@@H](CC(N)=O)C(=O)N[C@@H]([C@@H](C)O)C(=O)N[C@@H](C)C(=O)N[C@@H]([C@@H](C)O)C(=O)N1)[C@@H](C)O)C(=O)N1CCC[C@H]1C(=O)N[C@@H](CO)C(=O)N[C@@H](CO)C(=O)N[C@H](C(=O)N[C@@H](CC(N)=O)C(=O)N[C@H](C(=O)NCC(=O)N[C@@H](CO)C(=O)N[C@@H](Cc1c[nH]cn1)C(=O)N[C@H](C(=O)N[C@@H](Cc1ccc(O)cc1)C(N)=O)[C@@H](C)O)C(C)C)[C@@H](C)O
notes: also called compound 18
B5: N^α1-[(4S)-4-carboxy-4-(19-carboxynonadecanoylamino)butanoyl]-[Glu14,Arg17,Pro21,Pro27,Asp35,Pro37]-h-amylin (peptide)
peptide: {C20 diacid-γGlu}-KCNTATCATQRLAEFLRHSSPNFGAIPSSTNVGSDTP-NH2
modifications: disulfide 2-7
SMILES: CC[C@H](C)[C@H](NC(=O)[C@H](C)NC(=O)CNC(=O)[C@H](Cc1ccccc1)NC(=O)[C@H](CC(N)=O)NC(=O)[C@@H]1CCCN1C(=O)[C@H](CO)NC(=O)[C@H](CO)NC(=O)[C@H](Cc1c[nH]cn1)NC(=O)[C@H](CCCNC(=N)N)NC(=O)[C@H](CC(C)C)NC(=O)[C@H](Cc1ccccc1)NC(=O)[C@H](CCC(=O)O)NC(=O)[C@H](C)NC(=O)[C@H](CC(C)C)NC(=O)[C@H](CCCNC(=N)N)NC(=O)[C@H](CCC(N)=O)NC(=O)[C@@H](NC(=O)[C@H](C)NC(=O)[C@@H]1CSSC[C@H](NC(=O)[C@H](CCCCN)NC(=O)CC[C@H](NC(=O)CCCCCCCCCCCCCCCCCCC(=O)O)C(=O)O)C(=O)N[C@@H](CC(N)=O)C(=O)N[C@@H]([C@@H](C)O)C(=O)N[C@@H](C)C(=O)N[C@@H]([C@@H](C)O)C(=O)N1)[C@@H](C)O)C(=O)N1CCC[C@H]1C(=O)N[C@@H](CO)C(=O)N[C@@H](CO)C(=O)N[C@H](C(=O)N[C@@H](CC(N)=O)C(=O)N[C@H](C(=O)NCC(=O)N[C@@H](CO)C(=O)N[C@@H](CC(=O)O)C(=O)N[C@H](C(=O)N1CCC[C@H]1C(N)=O)[C@@H](C)O)C(C)C)[C@@H](C)O
notes: also called compound 11

One assay addresses T1, human calcitonin receptor. The experiment in a line: cell-based or functional assay.
Take B1: the “Ratio hCT/hAmylin funct.” value worked out at 1.1.
For B2, the “Ratio hCT/hAmylin funct.” value is 1.
Still for that read-out and setting: next, B3: 4; B4: 4.8.
Still for that read-out and setting: next, B5: 0.9.

In the next assay the target is T2, human amylin 3(a) receptor (human …). The experiment in a line: cell-based or functional assay.
B1: the “hAmylin-R funct. EC50 (pM)” value turned out to be 82 pM.
On the same count and under the same terms, then B2, with 72 pM; and B3, with 92 pM.
On the same count and under the same terms, then B4, with 154 pM; and B5, with 120 pM.
